Test results from the supplement of paper PMC9732359.
± gives the uncertainty stated by the source.

Test: protein stability index of a GFP-peptide fusion (yeast GPS) (PSI 1-4); higher = more stable; sorted into four equal gates, so the index is relative within each strain
Method in brief: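 Plasmids in a pooled yeast library fused tiled 17-residue yeast protein peptides downstream of GFP and also expressed Cherry. Mid-log cultures grown without leucine were sorted into four equal gates by GFP/Cherry fluorescence ratio. Each gate's plasmids were PCR-amplified and Illumina-sequenced, and reads were matched to strains by barcodes. The protein stability index is derived by multiplying each gate's read frequency by its gate number and summing the results.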

## KRADISKRRITEELSIT [SMC1]
doa10∆
  protein stability index: 1.46 ± 0.086
pdr5∆
  protein stability index: 1.73 ± 0.078
san1∆
  protein stability index: 1.72 ± 0.12
ubr1∆
  protein stability index: 1.83 ± 0.08

## KRDAKAAGSYYVEAQHK [RPL7A]
doa10∆
  protein stability index: 3.21 ± 0.086
pdr5∆
  protein stability index: 3.19 ± 0.046
san1∆
  protein stability index: 3.22 ± 0.042
ubr1∆
  protein stability index: 2.91 ± 0.054

## KRINKFLDSVHKQGSSY [POP7]
doa10∆
  protein stability index: 2.61 ± 0.04
pdr5∆
  protein stability index: 2.52 ± 0.033
san1∆
  protein stability index: 2.65 ± 0.045
ubr1∆
  protein stability index: 2.37 ± 0.031

## KRKLDIGKDTFVTRKSR [PRP8]
doa10∆
  protein stability index: 2.93 ± 0.079
pdr5∆
  protein stability index: 3.05 ± 0.057
san1∆
  protein stability index: 2.91 ± 0.068
ubr1∆
  protein stability index: 3.24 ± 0.043

## KRLIAHDWLNALDGDLI [YCG1]
doa10∆
  protein stability index: 2.18 ± 0.17
pdr5∆
  protein stability index: 2.9 ± 0.16
san1∆
  protein stability index: 2.6 ± 0.17
ubr1∆
  protein stability index: 3.23 ± 0.081

## KRLLYTRRFVNVTLVNG [RPS30A]
doa10∆
  protein stability index: 2.03 ± 0.051
pdr5∆
  protein stability index: 1.44 ± 0.04
san1∆
  protein stability index: 1.62 ± 0.099
ubr1∆
  protein stability index: 1.91 ± 0.059

## KRRKTHIHKHVKDEAFD [RET1]
doa10∆
  protein stability index: 2.87 ± 0.11
pdr5∆
  protein stability index: 3.23 ± 0.12
san1∆
  protein stability index: 2.92 ± 0.095
ubr1∆
  protein stability index: 3.1 ± 0.1

## KRRVTNLEFNYTKPYPN [SMC2]
doa10∆
  protein stability index: 3.12 ± 0.071
pdr5∆
  protein stability index: 2.88 ± 0.14
san1∆
  protein stability index: 2.75 ± 0.16
ubr1∆
  protein stability index: 2.81 ± 0.12

## KRVHTLLTLIVREYEQP [ISW2]
doa10∆
  protein stability index: 3.28 ± 0.23
pdr5∆
  protein stability index: 2.55 ± 0.15
san1∆
  protein stability index: 3.06 ± 0.15
ubr1∆
  protein stability index: 3.46 ± 0.18

## KRVKSYMDKAKQYDNRI [LRP1]
doa10∆
  protein stability index: 2.87 ± 0.047
pdr5∆
  protein stability index: 2.89 ± 0.042
san1∆
  protein stability index: 2.92 ± 0.04
ubr1∆
  protein stability index: 2.83 ± 0.042

## KRYANHTQDIIGGMRVD [RET1]
doa10∆
  protein stability index: 3.11 ± 0.069
pdr5∆
  protein stability index: 3.41 ± 0.075
san1∆
  protein stability index: 3.19 ± 0.049
ubr1∆
  protein stability index: 3.37 ± 0.049

## KSAENIIKMTIPYAAKL [RET1]
doa10∆
  protein stability index: 2.27 ± 0.1
pdr5∆
  protein stability index: 2.48 ± 0.11
san1∆
  protein stability index: 2.89 ± 0.15
ubr1∆
  protein stability index: 2.32 ± 0.09

## KSGKFCSHCGCVYVPNF [SNM1]
doa10∆
  protein stability index: 2.48 ± 0.068
pdr5∆
  protein stability index: 1.79 ± 0.055
san1∆
  protein stability index: 1.7 ± 0.11
ubr1∆
  protein stability index: 1.42 ± 0.062

## KSIENPTQTKGNDAKPA [YLR335W/NUP2]
doa10∆
  protein stability index: 3.12 ± 0.075
pdr5∆
  protein stability index: 3.24 ± 0.058
san1∆
  protein stability index: 3.23 ± 0.046
ubr1∆
  protein stability index: 2.94 ± 0.055

## KSIINSQRPGARILARS [ITC1]
pdr5∆
  protein stability index: 2.18 ± 0.16
san1∆
  protein stability index: 2.45 ± 0.22
ubr1∆
  protein stability index: 2.63 ± 0.11

## KSKFNKSNRSYSIALSN [GAL11]
doa10∆
  protein stability index: 2.85 ± 0.075
pdr5∆
  protein stability index: 2.47 ± 0.13
san1∆
  protein stability index: 3.1 ± 0.12
ubr1∆
  protein stability index: 2.81 ± 0.064

## KSKILRKVVFPFQLDVA [UBP6]
doa10∆
  protein stability index: 2.23 ± 0.09
pdr5∆
  protein stability index: 2.39 ± 0.089
san1∆
  protein stability index: 2.65 ± 0.11
ubr1∆
  protein stability index: 2.44 ± 0.057

## KSKLFEWKSEFVVPTFG [SNM1]
doa10∆
  protein stability index: 1.57 ± 0.058
pdr5∆
  protein stability index: 1.63 ± 0.067
san1∆
  protein stability index: 2.6 ± 0.08
ubr1∆
  protein stability index: 1.32 ± 0.067

## KSKSSLDGKFSLFHTAV [RPN2]
doa10∆
  protein stability index: 2.86 ± 0.096
pdr5∆
  protein stability index: 2.8 ± 0.072
san1∆
  protein stability index: 2.86 ± 0.067
ubr1∆
  protein stability index: 2.77 ± 0.067

## KSLDEQLLLLSDERAKL [LRP1]
doa10∆
  protein stability index: 2.73 ± 0.095
pdr5∆
  protein stability index: 3.2 ± 0.1
san1∆
  protein stability index: 2.84 ± 0.046
ubr1∆
  protein stability index: 2.91 ± 0.088

## KSLESQRYVKSVKSVKF [RPC34]
doa10∆
  protein stability index: 1.26 ± 0.081
pdr5∆
  protein stability index: 1.61 ± 0.058
san1∆
  protein stability index: 2.16 ± 0.098
ubr1∆
  protein stability index: 1.55 ± 0.084

## KSLVQYIELLPNADDIR [DIS3]
doa10∆
  protein stability index: 2.7 ± 0.15
pdr5∆
  protein stability index: 2.75 ± 0.077
san1∆
  protein stability index: 2.47 ± 0.069
ubr1∆
  protein stability index: 2.62 ± 0.064

## KSMKYVKKILPLYARYI [ECM29]
doa10∆
  protein stability index: 1.38 ± 0.093
pdr5∆
  protein stability index: 1.19 ± 0.069
ubr1∆
  protein stability index: 1.18 ± 0.1

## KSNGLAPEIPEDLYYLI [RPS13]
doa10∆
  protein stability index: 2.65 ± 0.081
pdr5∆
  protein stability index: 2.83 ± 0.13
san1∆
  protein stability index: 2.45 ± 0.11
ubr1∆
  protein stability index: 2.4 ± 0.14

## KSNGSSDDDNIGQSEEL [ISW2]
doa10∆
  protein stability index: 3.3 ± 0.1
pdr5∆
  protein stability index: 3.44 ± 0.09
san1∆
  protein stability index: 3.31 ± 0.08
ubr1∆
  protein stability index: 3.42 ± 0.12

## KSNRSYSIALSNVAAIF [GAL11]
doa10∆
  protein stability index: 1.76 ± 0.08
pdr5∆
  protein stability index: 1.67 ± 0.097
san1∆
  protein stability index: 1.4 ± 0.27
ubr1∆
  protein stability index: 1.43 ± 0.064

## KSNTIPVTSIPSTNKKL [GAL11]
doa10∆
  protein stability index: 2.67 ± 0.076
pdr5∆
  protein stability index: 2.87 ± 0.073
san1∆
  protein stability index: 2.9 ± 0.044
ubr1∆
  protein stability index: 2.96 ± 0.057

## KSPPQFFYNISSIHWNN [SIN4]
doa10∆
  protein stability index: 2.15 ± 0.042
pdr5∆
  protein stability index: 1.89 ± 0.039
san1∆
  protein stability index: 2.17 ± 0.065
ubr1∆
  protein stability index: 2.11 ± 0.042

## KSRGSDLQYLGEFSGKN [RRP6]
doa10∆
  protein stability index: 3.13 ± 0.088
pdr5∆
  protein stability index: 3.34 ± 0.11
san1∆
  protein stability index: 3.45 ± 0.082
ubr1∆
  protein stability index: 3.31 ± 0.073

## KSRPDRPKPVSPPCYII [SNF5]
doa10∆
  protein stability index: 2.93 ± 0.063
pdr5∆
  protein stability index: 3.08 ± 0.057
san1∆
  protein stability index: 2.98 ± 0.069
ubr1∆
  protein stability index: 2.95 ± 0.041

## KSSLSLRDHALSLTAFT [ITC1]
doa10∆
  protein stability index: 1.63 ± 0.036
pdr5∆
  protein stability index: 2.14 ± 0.036
san1∆
  protein stability index: 1.64 ± 0.064
ubr1∆
  protein stability index: 2.16 ± 0.036

## KTAKEVAGAIRAGIIIA [RPS2]
doa10∆
  protein stability index: 2.49 ± 0.14
pdr5∆
  protein stability index: 3.16 ± 0.17
san1∆
  protein stability index: 2.69 ± 0.24
ubr1∆
  protein stability index: 3.07 ± 0.1

## KTCAEVIGGNSLFHIVV [SMC3]
doa10∆
  protein stability index: 3.05 ± 0.11
pdr5∆
  protein stability index: 3.1 ± 0.1
san1∆
  protein stability index: 2.96 ± 0.071
ubr1∆
  protein stability index: 3.01 ± 0.089

## KTDEVIILGTNLYDGAE [BRR2]
doa10∆
  protein stability index: 2.98 ± 0.068
pdr5∆
  protein stability index: 3.12 ± 0.055
san1∆
  protein stability index: 3.06 ± 0.042
ubr1∆
  protein stability index: 2.9 ± 0.043

## KTDFAKIINKPNELSQI [RPC82]
doa10∆
  protein stability index: 3.09 ± 0.12
pdr5∆
  protein stability index: 3.13 ± 0.12
san1∆
  protein stability index: 2.84 ± 0.091
ubr1∆
  protein stability index: 3.12 ± 0.14

## KTFNKIQSQVFESLYNS [BRR2]
doa10∆
  protein stability index: 1.57 ± 0.061
pdr5∆
  protein stability index: 2.04 ± 0.064
san1∆
  protein stability index: 1.25 ± 0.12
ubr1∆
  protein stability index: 1.73 ± 0.054

## KTGTKPAAVFTETLKHD [RPL4A]
doa10∆
  protein stability index: 2.24 ± 0.077
pdr5∆
  protein stability index: 2.19 ± 0.17
san1∆
  protein stability index: 1.74 ± 0.15
ubr1∆
  protein stability index: 2.54 ± 0.11

## KTKAMSLSIEENIPVAL [POP1]
doa10∆
  protein stability index: 2.92 ± 0.079
pdr5∆
  protein stability index: 3.01 ± 0.099
san1∆
  protein stability index: 3.22 ± 0.1
ubr1∆
  protein stability index: 3.17 ± 0.092

## KTMIKTIEKDKMKIQET [SMC2]
doa10∆
  protein stability index: 2.85 ± 0.17
pdr5∆
  protein stability index: 1.86 ± 0.14
san1∆
  protein stability index: 1.64 ± 0.12
ubr1∆
  protein stability index: 2.04 ± 0.062

## KTPLLKQYLSASFSLKN [RPL6A]
doa10∆
  protein stability index: 2.01 ± 0.051
pdr5∆
  protein stability index: 1.98 ± 0.054
san1∆
  protein stability index: 2.25 ± 0.059
ubr1∆
  protein stability index: 2.27 ± 0.042

## KTSSQTSLSSKDLSNYR [YMR153W/NUP53]
doa10∆
  protein stability index: 2.67 ± 0.055
pdr5∆
  protein stability index: 2.54 ± 0.06
san1∆
  protein stability index: 2.58 ± 0.089
ubr1∆
  protein stability index: 2.65 ± 0.039

## KTVDSSIQPIESNIKMT [SSN2]
doa10∆
  protein stability index: 2.47 ± 0.082
pdr5∆
  protein stability index: 2.72 ± 0.1
san1∆
  protein stability index: 2.86 ± 0.083
ubr1∆
  protein stability index: 2.74 ± 0.052

## KVAHTSYKRIYGEYPPT [PRE8]
doa10∆
  protein stability index: 3.02 ± 0.062
pdr5∆
  protein stability index: 3.14 ± 0.068
san1∆
  protein stability index: 3.01 ± 0.085
ubr1∆
  protein stability index: 3.09 ± 0.049

## KVCECVCMHCGKLLLDE [RPO21]
doa10∆
  protein stability index: 2.96 ± 0.082
pdr5∆
  protein stability index: 2.97 ± 0.073
san1∆
  protein stability index: 2.88 ± 0.087
ubr1∆
  protein stability index: 2.96 ± 0.047

## KVDINADSAVNRQTLMF [PRP28]
doa10∆
  protein stability index: 3.32 ± 0.06
pdr5∆
  protein stability index: 3.32 ± 0.072
san1∆
  protein stability index: 3.08 ± 0.055
ubr1∆
  protein stability index: 3.17 ± 0.052

## KVKHDSQPFIKFLNFRP [SSN2]
doa10∆
  protein stability index: 2.88 ± 0.06
pdr5∆
  protein stability index: 2.6 ± 0.063
san1∆
  protein stability index: 2.49 ± 0.079
ubr1∆
  protein stability index: 2.63 ± 0.041

## KVLGVKDMSPILGELKR [LRP1]
doa10∆
  protein stability index: 2.71 ± 0.089
pdr5∆
  protein stability index: 3.14 ± 0.068
san1∆
  protein stability index: 2.88 ± 0.065
ubr1∆
  protein stability index: 3.12 ± 0.045

## KVLRKFRVQSQSNYGIY [NUT1]
doa10∆
  protein stability index: 1.85 ± 0.053
pdr5∆
  protein stability index: 2.29 ± 0.071
san1∆
  protein stability index: 1.34 ± 0.11
ubr1∆
  protein stability index: 2.3 ± 0.14

## KVRLNASEREELALIEE [PRP8]
doa10∆
  protein stability index: 3.14 ± 0.17
pdr5∆
  protein stability index: 2.89 ± 0.14
san1∆
  protein stability index: 2.98 ± 0.12
